Source: the supplement of paper PMC12042874
± gives the uncertainty stated by the source.

Assay: amyloid nucleation score (Sup35N fusion, yeast selection) (log enrichment); library NNK1; higher = more nucleation; inactive = no reads after selection
Summary of the method: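 Using DiMSum, nucleation scores were taken as the log enrichment of output over input reads, centred on the mode score of non-aggregating sequences. The input and output reads came from Illumina sequencing of plasmid inserts, with sequences under 100 input reads excluded. The yeast were psi-negative, expressed Sup35N fused to peptides of 20 random codons, were induced with 100 μM copper sulfate for 24 hours, and were grown 7 days at 30°C on medium lacking adenine and uracil.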

Substance	amyloid nucleation score
GPILDSNKASIPIV	-0.322 ± 0.96
GPTATVPPRHTREFILFKYS	-0.593 ± 1
GPTCDLRFAFNPHVTYGGHG	1.29 ± 0.64
GPVVLRTGLLVRFTYHIGRE	1.15 ± 0.24
GPYCHGWNLKNERAVSLRG	-0.647 ± 0.47
GQICAWPITMVWAAGR	-0.391 ± 1.5
GQIIMCAARLWLGKGCVS	-0.588 ± 1
GQLWGEVVIVYCKFAMEWAY	0.898 ± 0.27
GQVHRFIWLVT	-0.11 ± 0.3
GRAEAKLY	-0.118 ± 0.31
GRCDWTVLDMVDMIGKVESQ	0.273 ± 0.25
GRFFRRLRECNLPHSNIHAY	0.343 ± 0.42
GRGVLDYNGTTKKARVNRLC	inactive
GRISRFLFQRDNVWPSLAKQ	0.171 ± 0.52
GRNRRDVMSRSYSVVG	-0.72 ± 1.1
GRPICYKTHFSSLYVSEVDR	-1.19 ± 1.4
GRRLIKSTQCGVNKVDSAIW	-0.184 ± 0.27
GRRRSDQASTVRRSLCEGMA	0.451 ± 0.67
GRSGCCWMS	2.77 ± 0.19
GRSSD	-0.164 ± 0.84
GRWWRLLLYCLVAVLAFVGF	1.33 ± 0.6
GSALPSIWSWERFRSLLRNL	-0.221 ± 0.45
GSCCVKCDIHI	0.167 ± 0.53
GSCFTVWMIGPGRRTLLQVL	-0.079 ± 0.54
GSDMIVYIYRCTVTLMGSST	3.83 ± 0.099
GSDWTRMMNVLAGGGGVGSE	-0.484 ± 0.58

Substance	amyloid nucleation score
GSFRMVSMLSGISWARVARF	3.04 ± 0.18
GSGSAPCCTIAFMMLFGTEG	-0.057 ± 0.81
GSGSDGQVGWFVANRDERRE	0.495 ± 0.38
GSGVGKLCGLCSPG	0.274 ± 0.69
GSICSVVVTMLVFSNKVTSL	-0.353 ± 0.6
GSLWFRLGEFARTNFFNSVF	0.05 ± 0.26
GSMMWSMTADKLKFAGSVVC	0.889 ± 0.54
GSMWGGFPVG	1.07 ± 0.85
GSNTFI	0.243 ± 0.31
GSNVSSTM	0.537 ± 0.51
GSSAFRINLFFLSIVGYRRS	5.61 ± 0.062
GSSCNSLPFYVRDRFNTPCV	inactive
GSSFGFDYFDAHPMYLVTSY	1.37 ± 0.48
GSSGAWVCSGCL	-0.626 ± 1.2
GSSTMIGMANSFVVGLDSNE	inactive
GSTRVRTCGRKLMCALS	0.835 ± 0.24
GSVDQSMC	0.968 ± 0.45
GSVSVSQQS	-1.4 ± 2.4
GSVVYVIQGDMKRVLGFNGM	5.42 ± 0.096
GSWFYIFRV	0.089 ± 0.34
GSWIFCVFHLNMDFCSMGST	-0.023 ± 0.6
GSYECV	0.734 ± 1.2
GTCYFTDQR	0.491 ± 0.37
GTFISLLLS	-0.077 ± 0.26
GTGCFRCTVSTVGSVFIRDE	-0.27 ± 0.64
GTGTAPGINPWLLDSFPAPV	0.378 ± 0.28

Substance	amyloid nucleation score
GTIENFHGVTN	0.413 ± 0.49
GTMVSLKTGFKDTSRLLNWS	-0.748 ± 0.41
GTNCHL	-0.036 ± 0.79
GTSESLGYYSVLRMDIYFGS	inactive
GVDKEINLFMYRPYRFVSGE	1.1 ± 0.24
GVGGLWVEDSWRQRLDSEWA	-0.014 ± 0.48
GVGWVDGWSGSCFHWTGWCT	3.46 ± 0.078
GVKSQTMLGLQRSAAFILCY	-0.127 ± 0.55
GVLNVL	-0.418 ± 0.62
GVLSKSSKLFNCKDYCHSKY	1.13 ± 0.35
GVLYSDTLT	1.5 ± 0.14
GVMQFENIYGFVALMRRLMF	0.668 ± 0.62
GVPVYAVFLVDAMMYVCCMF	3.51 ± 0.14
GWNRTTSHWIRVFYCAVLVC	-0.346 ± 0.53
GWVGLLH	0.457 ± 0.31
GYDRSGT	0.135 ± 1.2
GYGFFWCDCYRYDRGSRWTG	1.93 ± 0.15
GYGIMANS	-0.179 ± 0.51
GYGYFSIVTTRMIVGVHVKC	-0.509 ± 0.57
GYIGICGNKYYFPVDRYRAC	1.28 ± 0.57
GYILPLLDVDYVKSVMICFW	3.8 ± 0.094
GYISRHNAGSSAPVNVVRLR	-0.223 ± 0.65
GYLCLGSCNRSVSLLSSTGS	0.407 ± 0.47
GYLLAERDLNIATARGSLLR	-0.514 ± 0.65
GYSLYRM	6.746 ± 0.044
GYTTLTQGL	-0.513 ± 1.2

Substance	amyloid nucleation score
HAFKPSAAPQWRTYPRFRSG	inactive
HALRSTLYMGSSVFLNAMDS	0.053 ± 1.1
HARRRCLDGFDMQGGIFM	0.047 ± 0.47
HAWVVVGRRGGKGLEAWCPV	-0.71 ± 0.81
HCCSYLLKR	-0.174 ± 0.61
HCFPCLVVIV	0.121 ± 0.36
HCFRWSMLGLRYATCPFQSD	-0.108 ± 0.37
HCHSPATKPALTLMMY	-0.738 ± 0.93
HCTLHSSVCSSGCWIE	1.1 ± 0.97
HCTSQ	1.71 ± 0.13
HCVEVSYKTSYAKELSFRVC	-0.142 ± 1.1
HEFNR	-0.936 ± 1.6
HEGRS	-1.25 ± 1.2
HFFDITLKADNSIILSLSKS	6.549 ± 0.057
HFIFEYTSFSS	0.307 ± 0.29
HFKRWLVNLFLTEFEKSYGV	-1.28 ± 0.62
HFVASDYHNVGSA	inactive
HGAFMVPT	0.895 ± 0.79
HGTCRC	0.034 ± 0.68
HGYHVHDGALLNQHNIS	0.004 ± 0.57
HHFAYWCIVWPE	0.728 ± 0.54
HHINWPGCVSRNSYKAIYDG	-0.262 ± 0.84
HIGYCQSVSTFSR	10.2 ± 0.046
HIPNDARRLFGSMGVSRASA	-0.407 ± 1
HISMRDFFSHLGRRVVGIMY	-1.1 ± 0.45
HKIHAVQLLQVRYLNKRLAG	0.96 ± 0.17

Substance	amyloid nucleation score
HLGAYYTGI	0.984 ± 0.36
HLKRRLKFDSGTSYQLVQKV	0.177 ± 1
HLNNCLTRRNWTRYFSRVAP	0.95 ± 0.58
HLSEFAVGVCEVY	1.27 ± 0.56
HLSVFQLDLTREVANCKSWM	3.17 ± 0.11
HLSWLRINLPGSPHPPMSLP	3.57 ± 0.11
HLWPVVSKGWDGFRCVSQVF	-1.25 ± 2.4
HLYDC	inactive
HMAAYKVSGVKSGSPEW	-0.145 ± 0.59
HMNSVVMPRWPTLNGELGSR	-0.179 ± 0.4
HNELCFMFYSLGNCYGAGVG	5.03 ± 0.095
HNFKCHLKSCKVSNFN	-1.02 ± 2.4
HNFWLCAVSYQDRVMFLSVF	0.497 ± 0.31
HNGHPRTAWVVVQY	0.298 ± 0.28
HPFKLGVFNISGESLSTA	-0.802 ± 2.1
HPGMTSAASVCWFHGRVLTL	0.494 ± 0.51
HPLQMISCNKHIQLANMQFR	0.795 ± 0.37
HQIYVLATETNSPMLRWKLQ	0.879 ± 0.98
HRCGLPASFIHHFVCDRAVG	-0.686 ± 1.4
HRDNH	-0.253 ± 0.35
HRIITCPFTSWNH	0.816 ± 0.54
HRQGYVWYLLR	1.43 ± 0.24
HRRSLRVGLSDIHLLAACAE	-0.897 ± 1.6
HRRSTHGMYPVPYCSSINH	0.687 ± 0.48
HRSKS	-0.087 ± 0.32
HSAGVVDALRCYNFYV	-0.102 ± 0.39
